# Reference: patent US20210115130A1 (Innovent, published 2021)
# T1: human IL23 protein (human IL12p40 - linker - human IL23p19 - His tag) (human, UniProt P29460 23-328; Q9NPF7 21-189)
# T1 construct: range 23-328;range 21-189; Single-chain fusion expressed in Expi293 cells; also called IL-23 antigen
# T1 sequence: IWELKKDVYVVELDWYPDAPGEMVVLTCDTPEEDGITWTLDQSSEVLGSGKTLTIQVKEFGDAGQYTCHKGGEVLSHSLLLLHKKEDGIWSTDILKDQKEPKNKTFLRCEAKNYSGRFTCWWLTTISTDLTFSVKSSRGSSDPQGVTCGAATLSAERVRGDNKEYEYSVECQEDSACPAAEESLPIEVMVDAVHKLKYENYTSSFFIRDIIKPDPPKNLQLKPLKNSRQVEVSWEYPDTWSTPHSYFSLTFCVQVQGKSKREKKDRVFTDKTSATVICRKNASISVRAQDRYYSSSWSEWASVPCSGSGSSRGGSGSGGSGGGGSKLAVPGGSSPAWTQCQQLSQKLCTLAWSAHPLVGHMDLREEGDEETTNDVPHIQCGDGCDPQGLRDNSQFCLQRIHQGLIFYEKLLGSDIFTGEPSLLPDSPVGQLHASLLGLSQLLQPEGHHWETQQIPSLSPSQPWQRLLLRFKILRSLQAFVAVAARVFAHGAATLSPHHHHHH
# T2: IL-23 (R&D Systems, Catalog No. 1290-IL-500/CF) (UniProt Q9NPF7 20-189; P29460 23-328)
# T2 sequence (looked up) 1: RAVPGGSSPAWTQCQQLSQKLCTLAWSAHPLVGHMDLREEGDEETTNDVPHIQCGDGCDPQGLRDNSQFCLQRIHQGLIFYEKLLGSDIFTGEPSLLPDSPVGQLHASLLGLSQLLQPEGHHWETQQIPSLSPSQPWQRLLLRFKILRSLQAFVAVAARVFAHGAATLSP
# T2 sequence (looked up) 2: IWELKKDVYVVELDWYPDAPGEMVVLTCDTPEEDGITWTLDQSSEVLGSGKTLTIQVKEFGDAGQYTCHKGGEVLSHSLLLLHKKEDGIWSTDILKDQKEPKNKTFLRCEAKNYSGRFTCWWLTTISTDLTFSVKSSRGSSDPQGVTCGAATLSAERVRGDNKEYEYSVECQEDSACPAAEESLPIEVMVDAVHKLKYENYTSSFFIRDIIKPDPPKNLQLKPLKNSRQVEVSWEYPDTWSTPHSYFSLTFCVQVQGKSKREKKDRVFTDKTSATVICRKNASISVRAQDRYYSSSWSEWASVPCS
# T3: human IL-12p40 (ACRO Biosystems, Cat #NK2-H52H7) (human, UniProt P29460 23-328)
# T3 construct: Bought protein
# T3 sequence (looked up): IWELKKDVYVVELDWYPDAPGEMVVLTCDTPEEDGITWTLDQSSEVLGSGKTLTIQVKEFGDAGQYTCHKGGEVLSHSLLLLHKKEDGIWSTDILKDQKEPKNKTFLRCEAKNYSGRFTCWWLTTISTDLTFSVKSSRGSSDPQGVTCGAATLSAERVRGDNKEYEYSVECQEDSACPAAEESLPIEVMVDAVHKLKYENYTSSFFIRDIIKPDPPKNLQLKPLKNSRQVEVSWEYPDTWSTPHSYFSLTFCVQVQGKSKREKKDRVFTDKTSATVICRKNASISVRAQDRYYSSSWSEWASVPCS
# T4: human IL-12 (ACRO Biosystems, Cat #IL2-H4210) (human, UniProt P29459 23-219; P29460 23-328)
# T4 construct: Bought protein
# T4 sequence (looked up) 1: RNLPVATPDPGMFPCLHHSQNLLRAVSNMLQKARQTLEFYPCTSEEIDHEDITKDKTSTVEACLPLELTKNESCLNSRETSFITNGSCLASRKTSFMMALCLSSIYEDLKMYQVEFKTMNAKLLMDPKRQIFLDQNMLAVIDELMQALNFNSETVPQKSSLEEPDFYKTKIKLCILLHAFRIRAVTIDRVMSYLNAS
# T4 sequence (looked up) 2: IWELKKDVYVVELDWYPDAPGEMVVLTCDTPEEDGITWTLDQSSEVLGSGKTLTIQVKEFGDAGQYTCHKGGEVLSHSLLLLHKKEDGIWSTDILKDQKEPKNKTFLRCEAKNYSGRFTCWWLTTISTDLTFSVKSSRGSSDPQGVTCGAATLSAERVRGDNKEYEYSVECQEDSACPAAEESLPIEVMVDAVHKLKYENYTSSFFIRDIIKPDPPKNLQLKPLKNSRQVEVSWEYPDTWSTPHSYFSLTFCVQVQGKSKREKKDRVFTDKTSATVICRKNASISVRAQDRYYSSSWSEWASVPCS
# Key:
# [1] = molecular target: T1, human IL23 protein (human IL12p40 - …); experiment: ForteBio BLI, antibody on AHQ sensor, 1:1 model
# Description: The equilibrium dissociation constant (KD) of the above 17D1 humanized antibody and 17D1-YTE of the present invention to human IL-23p19 was measured by biological optical interferometry (ForteBio).
# (§1) The ForteBio affinity assay was performed according to the prior art (Estep, P, et al., High throughput solution based measurement of antibody-antigen affinity and epitope binning MAbs, 2013.5(2): p. 270-8). Briefly, the sensor was equilibrated offline in an assay buffer for […], and was equilibrated online for 60 s to establish a baseline. The purified antibodies obtained as described above were loaded online onto an AHQ sensor (ForteBio) for the ForteBio affinity assay. The sensor with the loaded antibodies was then exposed to 100 nM […] antigens for […] before transferring the sensor to the assay buffer for […] of dissociation to measure the dissociation rate. The kinetic analysis was performed using a 1:1 binding model.
# [2] = molecular target: T5, human FcRn (Acro, Catalog No. FCM-H5286) (human, UniProt P55899 24-297; P61769 21-119); experiment: ForteBio Octet RED96 BLI, biotinylated antibody on SA sensor, FcRn in solution, 1:1 model
# T5 construct: Bought protein
# Description: First, the 17D1 humanized antibody, 17D1-YTE, and Gmab (guselkumab) prepared as described above were labeled with biotin, with the molar ratio of antibody to biotin being 1:3. The biotin was removed using a desalting column and the labeled samples were re-measured and stored for later use.
# (§2) An appropriate amount of SA sensor (Fortebio, Catalog No. 18-5019) was soaked in the analysis buffer for 30 min. The biotinylated 17D1 humanized antibody, 17D1-YTE, and Gmab were diluted to 100 nM, and human FcRn (Acro, Catalog No. FCM-H5286) was serially two-fold diluted to 5 concentrations (5, 2.5, 1.25, 0.625, 0.3125 μg/mL). The sensor was first equilibrated in the analysis buffer for 120 s. Then the biotinylated antibodies were loaded on the SA sensor for 100 s of immobilization, and the sensor was equilibrated for another 120 s after immobilization. After the baseline was stabilized, the serially diluted FcRns binded to the sensors with the same antibody immobilization level. After 100 s for binding, the sensors were equilibrated in analysis buffer for 120 s to measure the binding and dissociation. The experimental data were analyzed using a 1:1 model.
# [3] = molecular target: T2, IL-23 (R&D Systems, Catalog No. …); experiment: cell-based or functional assay
# [4] = molecular target: cynomolgus monkey IL23 protein (cynomolgus IL12p40 - linker - cynomolgus IL23p19 - His tag) (cynomolgus monkey); experiment: ForteBio BLI, antibody on AHQ sensor, 1:1 model
# Description: as §1
# [5] = molecular target: T3, human IL-12p40 (ACRO Biosystems, Cat …); experiment: ForteBio BLI, antibody loaded on AHQ sensor
# Description: as §1
# (§3) The equilibrium dissociation constant (KD) for binding of the above 17D1 humanized antibody and 17D1-YTE antibody of the present invention to human interleukin protein human IL-12 (ACRO Biosystems, Cat #IL2-H4210) or human IL-12p40 (ACRO Biosystems, Cat #NK2-H52H7) of the same family was measured by biological optical interferometry (ForteBio) (Table 18).
# [6] = molecular target: T4, human IL-12 (ACRO Biosystems, Cat …); experiment: ForteBio BLI, antibody loaded on AHQ sensor
# Description: as §1, §3
# [7] = molecular target: T5, human FcRn (Acro, Catalog No. FCM-H5286); experiment: ForteBio Octet RED96 BLI, biotinylated antibody on SA sensor
# Description: In this assay, the ForteBio Octet RED96 System was used to detect the kinetic constant (KD) for binding of 17D1 humanized antibody and 17D1-YTE to human FcRn (Acro, Catalog No. FCM-H5286). The affinity of 17D1-YTE to human FcRn was three times those of 17D1 humanized antibody and reference antibody Gmab.
# as §2
Kd [1] [nM],koff [1] [s⁻¹],kon [1] [M⁻¹ s⁻¹],Kd [2] [nM],koff [2] [s⁻¹],kon [2] [M⁻¹ s⁻¹],"IC50 (inhibition of IL-23-induced IL-17 secretion in mouse splenic lymphocytes, IL-17 ELISA) [3] [µg/mL]",Kd [4] [nM],Response [4],koff [4] [s⁻¹],kon [4] [M⁻¹ s⁻¹],binding result [5],binding result [6],fold affinity against 17D1 humanized antibody and Gmab [7] [fold],Binder
1.04,0.00012,115000,13.2,0.0148,1.12e+06,0.124,0.941,0.284,5.8e-05,61600,–,–,–,guselkumab (antibody) chain 1: not shown chain 2: not shown
1.75,0.000164,93700,12.3,0.0141,1.15e+06,0.113,1.67,0.215,8.44e-05,50400,no binding (tested: 100 nM),no binding (tested: 100 nM),–,"17D1 humanized antibody (antibody, human IgG1, kappa, Biotinylated for the FcRn assay; also called humanized antibody 17D1; copies: 2 + 2) heavy: not shown light: DIQMTQSPSSLSASVGDRVTITCRASQSISDYLHWYQQKPGKAPKLLIKYASQSMSGVPSRFSGSGSGSDFTLTISSLQPEDFATYYCQQGHSFPFTFGQGTKLEIKRTVAAPSVFIFPPSDEQLKSGTASVVCLLNNFYPREAKVQWKVDNALQSGNSQESVTEQDSKDSTYSLSSTLTLSKADYEKHKVYACEVTHQGLSSPVTKSFNRGEC"
0.611,5.69e-05,93100,3.34,0.0033,988000,0.114,0.37,0.207,2.16e-05,58400,no binding (tested: 100 nM),no binding (tested: 100 nM),3,"17D1-YTE (antibody, human IgG1, kappa, Biotinylated for the FcRn assay; also called 17D1-YTE antibody; copies: 2 + 2) heavy: QVQLVQSGAEVKKPGASVKVSCKASGYTFTSYLMHWVRQAPGQGLEWMGYINPYNEGTNYAQKFQGRVTMTRDTSISTAYMELSRLRSDDTAVYYCARNWDLPYWGQGTLVTVSSASTKGPSVFPLAPSSKSTSGGTAALGCLVKDYFPEPVTVSWNSGALTSGVHTFPAVLQSSGLYSLSSVVTVPSSSLGTQTYICNVNHKPSNTKVDKKVEPKSCDKTHTCPPCPAPELLGGPSVFLFPPKPKDTLYITREPEVTCVVVDVSHEDPEVKFNWYVDGVEVHNAKTKPREEQYNSTYRVVSVLTVLHQDWLNGKEYKCKVSNKALPAPIEKTISKAKGQPREPQVYTLPPSRDELTKNQVSLTCLVKGFYPSDIAVEWESNGQPENNYKTTPPVLDSDGSFFLYSKLTVDKSRWQQGNVFSCSVMHEALHNHYTQKSLSLSPG light: DIQMTQSPSSLSASVGDRVTITCRASQSISDYLHWYQQKPGKAPKLLIKYASQSMSGVPSRFSGSGSGSDFTLTISSLQPEDFATYYCQQGHSFPFTFGQGTKLEIKRTVAAPSVFIFPPSDEQLKSGTASVVCLLNNFYPREAKVQWKVDNALQSGNSQESVTEQDSKDSTYSLSSTLTLSKADYEKHKVYACEVTHQGLSSPVTKSFNRGEC"
